Measured values from article PMC5638582.

Biological target: Erv1 with a C-terminal histidine tag (Erv1-His) (S. cerevisiae) (UniProt P27882)
Test: pull-down

Sequence of UniProt P27882 (P27882 whole entry): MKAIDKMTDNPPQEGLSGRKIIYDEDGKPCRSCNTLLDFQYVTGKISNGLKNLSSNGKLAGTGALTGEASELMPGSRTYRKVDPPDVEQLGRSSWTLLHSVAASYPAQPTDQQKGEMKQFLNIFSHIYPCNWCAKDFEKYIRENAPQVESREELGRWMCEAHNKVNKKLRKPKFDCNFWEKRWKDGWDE

For “Osm1 (fumarate reductase), endogenous mitochondrial form (from UniProt P21375 33-501) (enzyme)”, the fraction copurified was 10%.
